Assay results published in patent US20200165351A1 (University of California, published 2020).

Experiments:
[1] = molecular target: bacterially produced human N-cadherin ECD4 with ECD3 overhang (human) (UniProt P19022); experiment: ELISA, saturation binding on immobilized antigen, half-maximal binding
[2] = molecular target: T1, recombinant human N-cadherin ECD1-3-Fc (human; murine, UniProt P19022 160-497); experiment: ELISA, saturation binding on immobilized antigen
T1 construct: range 160-497; Cloned into pSECTag2A(AgeI); produced in 293-F cells, Protein A purified; also called Ncad-ECD1-3-Fc; not shown: murine gamma 2a Fc region
T1 sequence (looked up): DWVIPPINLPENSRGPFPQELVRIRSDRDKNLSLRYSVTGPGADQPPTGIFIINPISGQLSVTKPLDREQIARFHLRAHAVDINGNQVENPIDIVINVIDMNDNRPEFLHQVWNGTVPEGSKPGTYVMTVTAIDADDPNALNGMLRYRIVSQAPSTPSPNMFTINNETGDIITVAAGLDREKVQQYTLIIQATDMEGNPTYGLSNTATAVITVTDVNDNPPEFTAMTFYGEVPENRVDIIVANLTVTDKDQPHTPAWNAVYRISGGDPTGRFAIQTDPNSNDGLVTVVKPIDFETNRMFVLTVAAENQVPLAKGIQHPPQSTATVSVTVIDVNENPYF
Protocol: Saturation binding of the humanized scFv fragments was performed on immobilized recombinant human Ncad-ECD1-3-Fc in ELISA (FIG. 8) confirming successful humanization and retained antigen specificity.

[3] = molecular target: T2, bacterially produced N-cadherin ECD1-3 (UniProt P19022 160-497, limits assumed); experiment: ELISA, saturation binding on immobilized antigen, half-maximal binding
T2 construct: domain: ECD1-3; Antigen against which hybridoma 1H7 was selected; also called ECD1-3 (bacterially produced)
T2 sequence (looked up): T1 sequence (looked up)
Protocol: FIG. 11 depicts saturation binding of full length IgGs to recombinant antigen in ELISA. Bacterially produced antigens ECD4 and ECD1-3 were immobilized. Bound antibodies were detected with goat anti-human Fcg-AP or goat anti-mouse Fcg-AP respectively.
Saturation binding of the humanized full-length antibodies in comparison to the parental murine antibodies was tested in ELISA.

B1: hu2A9 IgG (antibody, V domains shown)
VH: QVQLVQSGAEVKKPGASVKLSCKASGYTFTSYWMQWVRQAPGQGLEWIGAIYPGDGETTYTQKFKGRVTMTADTSISTAYMELSRLRSDDTAVYYCAKGDGYWAMDYWGQGTLVTVSS
VL: DVVMTQSPLSLPVTLGQPASISCRSSQSLVHSNGNTYLHWYQQRPGQSPRLLIYKVSNRFSGVPDRFSGSGSGTDFTLKISRVEAEDVGVYYCSQSTHVPLTFGAGTKLELK
Kd [1]: 0.5 nM

B2: humanized 2A9 scFv (scFv)
scFv: QVQLVQSGAEVKKPGASVKLSCKASGYTFTSYWMQWVRQAPGQGLEWIGAIYPGDGETTYTQKFKGRVTMTADTSISTAYMELSRLRSDDTAVYYCAKGDGYWAMDYWGQGTLVTVSSGGGGSGGGGSGGGGSDVVMTQSPLSLPVTLGQPASISCRSSQSLVHSNGNTYLHWYQQRPGQSPRLLIYKVSNRFSGVPDRFSGSGSGTDFTLKISRVEAEDVGVYYCSQSTHVPLTFGAGTKLELK
notes: VH-(G4S)3-VL scFv secreted with the Ig kappa leader; also called hu2A9 scFv; scFv hu2A9; not shown: C-terminal tag from vector pSECTag2A (His-tag; detected through c-Myc)
binding result [2]: binds

B3: hu1H7 IgG (antibody, V domains shown)
VH: QVQLVQSGAEVKKPGASVKVSCKASGFTFTDYLIQWVRQAPGQGLEWIGWIYPGSGSIKYNEKFQGRVTMTADTSINTAYMELSRLRSDDTAVYFCARRGDWGGFFDYWGQGTLVTVSS
VL: EIVLTQSPATLSLSPGERATLSCTASSSVSSSYLHWYQQKPGLAPRLWIFSTSNLASGIPDRFSGSGSGTDFTLTISRLEPEDFAVYYCHQYHRSLTFGGGTKVEIK
notes: also called h1H7; humanized full-length antibody hu1H7
Kd [3]: 0.4 nM
